Experimental data published in paper PMC8767022, “Mechanism and Structural Insights Into a Novel Esterase, E53, Isolated From Erythrobacter longus” (Frontiers in Microbiology, 2022).
Positions count from the first letter of the chain named. Names may count otherwise.

B1: E53 (Erythrobacter longus; F191Y) (protein)
chain: MTDTPFIRPDMKAFLEAIAAMAGPTLAEMTLEEARASYVALHGMADRPARELAVIRNLSCPGPAGDIPLRLYDARESREAGPVITFYHGGGFVIGDLDTHHNLCTEIAALMDLPVVAVDYRLAPEHPFPAAIEDCEAATRWVASSPSELGRTASGVIPIGDSAGGNATIVVSQLLGAKPADVPVVLQVPIYPLASDAVGSASLEAFAEGFVLTKASIEFFDTAYKADRADPRGFPILGDHTAAPPTIVATASLDPIRDSGRDYAKALVEAGRDVVYLEMEGVTHSFTNIRAAVPSTQGDLERIIAAMKMMLGTA
notes: full length, 314 residues; N-terminal His6-SUMO tag (pSMT3) removed with Ulp1; E. coli BL21(DE3); monomer
B2: E53 (Erythrobacter longus; N166A) (protein)
chain: B1 chain with N166A, Y191F
notes: as for B1
B3: E53 (Erythrobacter longus; I256L) (protein)
chain: B1 chain with Y191F, I256L
notes: as for B1
B4: E53 (Erythrobacter longus; A167L) (protein)
chain: B1 chain with A167L, Y191F
notes: as for B1
B5: E53 (Erythrobacter longus; V211A) (protein)
chain: B1 chain with Y191F, V211A
notes: as for B1
B6: E53 (Erythrobacter longus; S216A) (protein)
chain: B1 chain with Y191F, S216A
notes: as for B1
B7: E53 (Erythrobacter longus) (protein)
chain: B1 chain with Y191F
notes: as for B1

What was measured:
[1] = biological target: T1, E53 (Erythrobacter longus, UniProt A0A074MDU6, I256L); assay: X-ray crystal structure, substrate soak; assay type: binding; settings: pH 6.5 crystals; active site
T1 construct: gene EH31_02760; full length, 314 residues; N-terminal His6-SUMO tag (pSMT3) removed with Ulp1; E. coli BL21(DE3); monomer

[2] = biological target: T2, E53 (Erythrobacter longus, UniProt A0A074MDU6, S285G); assay: X-ray crystal structure, substrate soak; assay type: binding; settings: pH 6.5 crystals; active site
T2 construct: gene EH31_02760; full length, 314 residues; N-terminal His6-SUMO tag (pSMT3) removed with Ulp1; E. coli BL21(DE3); monomer

[3] = biological target: T3, E53 (Erythrobacter longus, UniProt A0A074MDU6); assay: X-ray crystal structure, substrate soak; assay type: binding; settings: pH 6.5 crystals; active site
T3 construct: gene EH31_02760; full length, 314 residues; N-terminal His6-SUMO tag (pSMT3) removed with Ulp1; E. coli BL21(DE3); monomer

[4] = substrate: CCCC(=O)Oc1ccc([N+](=O)[O-])cc1; assay: purified protein; assay type: biochemical, Erythrobacter longus; settings: Tris-HCl pH 9.0 (also pH 7.0), 40 °C, 0.05-4.00 mM substrate

T3 sequence (A0A074MDU6 entry or part of it): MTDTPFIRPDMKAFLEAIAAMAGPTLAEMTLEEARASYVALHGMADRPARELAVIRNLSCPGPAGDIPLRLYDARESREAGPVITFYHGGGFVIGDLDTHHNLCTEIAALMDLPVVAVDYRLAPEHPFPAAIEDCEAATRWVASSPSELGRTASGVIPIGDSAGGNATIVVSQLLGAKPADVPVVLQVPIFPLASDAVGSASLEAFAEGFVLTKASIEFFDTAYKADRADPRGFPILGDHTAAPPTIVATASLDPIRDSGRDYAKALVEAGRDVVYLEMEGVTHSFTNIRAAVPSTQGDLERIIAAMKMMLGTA
T2 sequence (A0A074MDU6 entry or part of it S285G): as the sequence (A0A074MDU6 entry or part of it) above, with S285G counted along it
T1 sequence (A0A074MDU6 entry or part of it I256L): as the sequence (A0A074MDU6 entry or part of it) above, with I256L counted along it

Molecule | Km [4] [µM] | further results
CCCCCC(=O)Oc1ccc([N+](=O)[O-])cc1 [C6, p-NP hexanoate] | – | X-ray crystal structure, substrate soak [1]: observed in the crystal structures of E53, I256L, and S285G; X-ray crystal structure, substrate soak [2]: observed in the crystal structures of E53, I256L, and S285G; X-ray crystal structure, substrate soak [3]: observed in the crystal structures of E53, I256L, and S285G
B1 | 210 ± 20 | –
B2 | 460 ± 40 | –
B3 | 230 ± 20 | –
B4 | 150 ± 10 | –
B5 | 520 ± 30 | –
B6 | 420 ± 30 | –
B7 | 330 ± 30 | –
